{
  "source": "paper PMC5646979",
  "about": "(Molecular Medicine Reports, 2017)",
  "target": "T1, Glu225Ala mutant RANKL (UniProt O35235 139-316, Glu225Ala)",
  "T1 sequence (looked up)": "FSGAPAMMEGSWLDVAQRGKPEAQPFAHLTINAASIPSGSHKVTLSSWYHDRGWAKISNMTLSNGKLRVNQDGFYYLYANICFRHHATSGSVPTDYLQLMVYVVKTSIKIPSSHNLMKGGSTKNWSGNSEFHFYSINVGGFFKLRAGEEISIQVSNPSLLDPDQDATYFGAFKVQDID",
  "assay": "SPR",
  "data": [
    {"binder": "Recombinant soluble RANK (receptor activator of nuclear factor κ-B) (receptor, murine, UniProt O35305 31-214, looked up) VTPPCTQERHYEHLGRCCSRCEPGKYLSSKCTPTSDSVCLPCGPDEYLDTWNEEDKCLLHKVCDAGKALVAVDPGNHTAPRRCACTAGYHWNSDCECCRRNTECAPGFGAQHPLQLNKDTVCTPCLLGFFSDVFSSTDKCKPWTNCTLLGKLEAHQGTTESDVVCSSSMTLRRPPKEAQAYLPS", "values": [
      {"measurement": "fold decrease of binding affinity against wild-type RANKL", "value": 100, "unit": "fold"}
    ]}
  ]
}
